Each block holds one molecule with its values, some of them ahead of it.
Columns and labels:
[1] = molecular target: mouse protocadherin-15 EC1+2 R113G (mouse) (UniProt Q99PJ1); assay: ITC
[2] = molecular target: mouse protocadherin-15 EC1+2 I22A (mouse, UniProt Q99PJ1-18 27-259, I22A); assay: ITC
[3] = molecular target: T1, mouse protocadherin-15 EC1+2 (mouse, UniProt Q99PJ1-18 27-259); assay: ITC
[4] = molecular target: T1, mouse protocadherin-15 EC1+2; assay: crystal structure

B1: mouse cadherin-23 EC1+2 (domain or fragment)
chain: MQVNRLPFFTNHFFDTYLLISEDTPVGSSVTQLLARDMDNDPLVFGVSGEEASRFFAVEPDTGVVWLRQPLDRETKSEFTVEFSVSDHQGVITRKVNIQVGDVNDNAPTFHNQPYSVRIPENTPVGTPIFIVNATDPDLGAGGSVLYSFQPPSPFFAIDSARGIVTVIQELDYEVTQAYQLTVNATDQDKTRPLSTLANLAIIITD
Kd [2]: > 100 µM
Kd [3]: 2.9 µM
dH [3]: 7.08 kcal/mol
stoichiometry N [3]: 0.88

B3: mouse cadherin-23 EC1+2 S47P (domain or fragment)
chain: MQVNRLPFFTNHFFDTYLLISEDTPVGSSVTQLLARDMDNDPLVFGVPGEEASRFFAVEPDTGVVWLRQPLDRETKSEFTVEFSVSDHQGVITRKVNIQVGDVNDNAPTFHNQPYSVRIPENTPVGTPIFIVNATDPDLGAGGSVLYSFQPPSPFFAIDSARGIVTVIQELDYEVTQAYQLTVNATDQDKTRPLSTLANLAIIITD
binding result [4]: binds

More lines, now with the values ahead:

Kd [1]: > 20 µM
Molecule: mouse cadherin-23 EC1+2 (from UniProt Q99PF4 24-228) (domain or fragment)

Kd [3]: > 30 µM
B2: mouse cadherin-23 EC1+2 L145G (domain or fragment)
chain: MQVNRLPFFTNHFFDTYLLISEDTPVGSSVTQLLARDMDNDPLVFGVSGEEASRFFAVEPDTGVVWLRQPLDRETKSEFTVEFSVSDHQGVITRKVNIQVGDVNDNAPTFHNQPYSVRIPENTPVGTPIFIVNATDPDLGAGGSVGYSFQPPSPFFAIDSARGIVTVIQELDYEVTQAYQLTVNATDQDKTRPLSTLANLAIIITD

— article PMC3518760 (Nature, 2012)
